According to patent US20230212291A1 (BEIGENE, published 2023):

Biological target: T1, full-length human OX40 expressed on HuT78 cells (HuT78/OX40) (human, UniProt P43489 29-277)
T1 sequence: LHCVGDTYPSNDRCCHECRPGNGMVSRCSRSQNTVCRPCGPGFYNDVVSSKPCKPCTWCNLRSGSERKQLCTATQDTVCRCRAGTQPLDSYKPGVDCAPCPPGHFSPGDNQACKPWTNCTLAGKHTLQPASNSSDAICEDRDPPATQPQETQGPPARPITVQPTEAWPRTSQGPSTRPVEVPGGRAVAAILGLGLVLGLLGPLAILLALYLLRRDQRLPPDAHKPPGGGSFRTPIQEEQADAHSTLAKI
Assay: cell-based or functional assay

B1: 445-3 (antibody, human IgG1, V domains shown)
VH: QVQLVQSGAEVKKPGSSVKVSCKASGYKFTSYIIHWVRQAPGQGLEWMGYINPYNEGTRYNQKFQGRVTLTADKSTSTAYMELSSLRSEDTAVYYCARGYYGSSYAMDYWGQGTTVTVSS
VL: DIQMTQSPSSLSASVGDRVTITCRASQGISNYLNWYQQKPDGAIKLLIYDASTLYSGVPSRFSGSGSGTDFTLTISSLQPEDFATYYCQQYSKLPYTFGGGTKVEIK
B1 was tested. Which “ADCC (LDH release), NK92MI/CD16V effector cells, HuT78/OX40 target cells (EC50)” value did it give?
Its value is 27 ng/mL.

What about the “IL-2 production by HuT78/OX40 cells co-cultured with HEK293/OS8Low-FcγRI cells (EC50)” value of the same binder?
Its value is 0.06 ng/mL.
